Source: publication PMC7343212, “Lactoferrin-Hexon Interactions Mediate CAR-Independent Adenovirus Infection of Human Respiratory Cells” (Journal of Virology, 2020)
Entries after “also recorded” stand apart in the source; their conditions may differ.

What was measured:
[1] = system: human respiratory epithelial A549 cells (HAdV-C5_GFP); assay: HAdV-C5_GFP transduction of A549 cells; type: cell-based; conditions: for effect of LF on HAdV-C5_GFP transduction of A549 cells (in words): GFP imaging after 44 h (Fig. 1A)
From the text: For all transduction experiments, GFP-expressing vectors were used. The HAdV_GFP vector was purchased from Vector Development Laboratory. All mutated HAdV-C5 vectors were generated in the laboratory of A. Plückthun at the University of Zürich using the AdEasy system (Agilent) to contain an internal ribosome entry site (IRES)-luciferase (Luc)-GFP cassette for detection of transduction. To investigate the role of integrins in transduction, HAdV-C5-IRES-GFP with an intact RGD loop in the penton base protein (-DMNDHAIRGDTFATRAE-) and HAdV-C5-ΔRGD-IRES-GFP (-DMNDTSRAEEKRAE-), known not to bind integrins ([40]), were generated. To determine the binding site for hLF/hLfcin on the hexon protein, hexon-mutated vectors were produced with HVR-1 of HAdV-C5 ([43]) replaced with the corresponding sequence of HAdV-A31, as well as a HAdV-C5 vector mutated in HVR-7 ([44]).
For experiments in A549 cells, 15,000 cells were seeded into a black 96-well plate with a transparent bottom. For experiments with CHO-K1 cells, 20,000 cells were seeded. After 24 h, HAdV-C5 vectors was complexed with 2 μM Lfcin or with ∼12 μM (1 mg/ml) of LF and, after 60 min, added to the cells on ice. The blocking of CAR using soluble HAdV-C5 fiber knob was performed using 10 μg/ml of recombinant knob. After another 60 min, unbound complex was washed away using Dulbecco’s modified Eagle’s medium (DMEM), followed by final addition of fresh medium. After 44 h, the cells were fixed using 4% paraformaldehyde (PFA) for 10 min, and GFP expression was imaged using a Trophos system (Luminy Biotech Entreprises). For the hexon chimeric viruses, transduction was instead quantified by measuring the luciferase activity at 44 h postinfection using a Pierce luciferase glow assay kit.

[2] = system: A549 cells (HAdV-C5 virions); assay: 35S-labeled HAdV-C5 virion binding to A549 cells; type: cell-based, Human; conditions: at this concentration (2 μM), Fig. 1C
Method: A549 cells were detached using phosphate-buffered saline (PBS) plus 0.05% EDTA with slow rocking at 37°C. Once detached, the cells were centrifuged at 1,500 × g for 5 min, resuspended in growth medium to about 2 × 10^6 cells/ml, and allowed to recover at 37°C, slowly rocking to keep the cells in suspension. While recovering, the HAdV-Lfcin complex was set up. Lfcin (2 μM), or an equivalent volume of PBS, was mixed with ^35S-labeled HAdV (15,000 particles/cell) in medium and left on ice at 4°C for 60 min. After 60 min of recovery, the cells were counted, and 150,000 viable cells were added to each well of a 96-V-shaped-well plate and centrifuged for 5 min at 1,500 × g. Once pelleted, the cells were resuspended in the HAdV-Lfcin solution or in HAdV-PBS solution and incubated on ice for 60 min at 4°C. After 60 min, the cells were pelleted and washed once in medium and once in PBS before the addition of scintillation fluid and quantification using a Wallac 1450 Microbeta counter (Trilux).

HAdV-C5 hexon = target: T1, HAdV-C5 hexon (Human adenovirus C serotype 5, UniProt P04133); assay: Surface plasmon resonance, HAdV-C5 hexon immobilized; type: binding
T1 construct: the top phase containing soluble viral components was recovered, and HAdV hexons were purified using monoclonal hexon antibodies; made in house; host or cells: A549 cells infected with wild-type HAdV-C5 (strain Ad75)
T1 sequence (P04133 2-952 limits assumed): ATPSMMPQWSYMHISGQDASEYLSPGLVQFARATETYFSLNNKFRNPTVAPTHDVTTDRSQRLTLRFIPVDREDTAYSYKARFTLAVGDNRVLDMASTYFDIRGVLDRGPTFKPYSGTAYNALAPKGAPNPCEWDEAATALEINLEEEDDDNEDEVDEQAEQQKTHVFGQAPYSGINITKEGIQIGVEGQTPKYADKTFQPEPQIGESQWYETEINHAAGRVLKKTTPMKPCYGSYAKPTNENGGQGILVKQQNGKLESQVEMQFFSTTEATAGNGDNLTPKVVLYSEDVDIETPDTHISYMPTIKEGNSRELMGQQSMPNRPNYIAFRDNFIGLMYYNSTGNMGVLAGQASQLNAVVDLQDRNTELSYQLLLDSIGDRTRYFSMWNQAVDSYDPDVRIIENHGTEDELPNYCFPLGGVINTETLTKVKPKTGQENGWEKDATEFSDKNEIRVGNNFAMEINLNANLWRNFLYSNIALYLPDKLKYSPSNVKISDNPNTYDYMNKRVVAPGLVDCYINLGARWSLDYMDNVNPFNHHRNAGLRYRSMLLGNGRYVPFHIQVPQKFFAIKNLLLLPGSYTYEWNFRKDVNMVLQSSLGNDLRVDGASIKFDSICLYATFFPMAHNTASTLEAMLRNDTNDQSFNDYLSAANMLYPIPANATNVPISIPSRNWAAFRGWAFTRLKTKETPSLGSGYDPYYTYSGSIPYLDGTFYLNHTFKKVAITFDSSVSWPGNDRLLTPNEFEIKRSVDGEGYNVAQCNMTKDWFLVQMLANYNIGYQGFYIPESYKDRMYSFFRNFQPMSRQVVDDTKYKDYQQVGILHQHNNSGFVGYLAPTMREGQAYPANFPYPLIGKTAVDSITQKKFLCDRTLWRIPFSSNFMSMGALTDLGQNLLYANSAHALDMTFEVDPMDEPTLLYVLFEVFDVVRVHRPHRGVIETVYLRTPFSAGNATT
Method: (§1) Ten flasks of 70% confluent A549 cells were infected with HAdV-C5, HAdV-A31, or HAdV-B35. After initial inoculation, unbound virus was washed away, and approximately 30 ml of fresh medium (DMEM plus 20 mM HEPES [N-2-hydroxyethylpiperazine-NN-2-ethanesulfonic acid] plus 5% FBS) was added. At 48 h after infection, the cells were harvested by scraping into a small volume of DMEM, centrifuged, and resuspended in 6 ml of DMEM. The collected cells were lysed and the sample cleared by centrifugation. Virus was separated from soluble viral components by a CsCl gradient, as described previously ([59]). After ultracentrifugation, the top phase containing soluble viral components was recovered, and HAdV hexons were purified using monoclonal hexon antibodies (MAB8052) covalently attached to magnetic protein A/G beads (Pierce) using dimethyl pimelimidate (DMP) according to the manufacturer’s instructions. Bound hexons were washed three times using PBS to remove protein bound unspecifically, followed by elution in 50 μl of 200 mM glycine buffer at pH 2.5.
(§2) CM5 sensor chips, an amine-coupling kit, and HBS-EP+ buffer (10 mM HEPES, 150 mM NaCl, 3 mM EDTA, and 0.005% [vol/vol] surfactant P20 [pH 7.4]) were all purchased from GE Healthcare. All surface plasmon resonance (SPR) experiments were performed at 25°C in HBS-EP+ running buffer with adenovirus hexons immobilized on the sensor surface. In addition, all experiments were performed with the same batch of LF/Lfcin. Data were collected with a Biacore T200 instrument at a rate of 1 Hz. HAdV hexons were coupled to the CM5 sensor chip by amine coupling reactions according to the manufacturer’s instructions, aiming for an immobilization density of 900 to 1,100 resonance units (RU). The surface of the upstream flow cell was used as a reference and was subjected to the same coupling reaction in the absence of protein. The analytes were serially diluted in running buffer to prepare a 2-fold concentration series ranging from 8 nM to 2 μM and then injected in series over reference and experimental biosensor surfaces for 120 sec at a flow rate of 30 μl/min. Blank samples containing only running buffer were also injected under the same conditions to allow for double referencing. After each cycle, the biosensor surface was regenerated with a 60-sec pulse of 10 mM Tris-glycine (pH 1.5) at a flow rate of 30 μl/min.

HAdV-B35 hexon = assay: Surface plasmon resonance, HAdV-B35 hexon immobilized; type: binding
Method: as §1, §2

HAdV-A31 hexon = assay: Surface plasmon resonance, HAdV-A31 hexon immobilized; type: binding; conditions: analyte hLF, HBS-EP+ pH 7.4, 25°C, average from three independent measurements
Method: as §1
CM5 sensor chips, an amine-coupling kit, and HBS-EP+ buffer (10 mM HEPES, 150 mM NaCl, 3 mM EDTA, and 0.005% [vol/vol] surfactant P20 [pH 7.4]) were all purchased from GE Healthcare. All surface plasmon resonance (SPR) experiments were performed at 25°C in HBS-EP+ running buffer with adenovirus hexons immobilized on the sensor surface. In addition, all experiments were performed with the same batch of LF/Lfcin. Data were collected with a Biacore T200 instrument at a rate of 1 Hz. HAdV hexons were coupled to the CM5 sensor chip by amine coupling reactions according to the manufacturer’s instructions, aiming for an immobilization density of 900 to 1,100 resonance units (RU). The surface of the upstream flow cell was used as a reference and was subjected to the same coupling reaction in the absence of protein. […]

[3] = system: epithelial and T cells (species C HAdVs); conditions: ref [15], cited from earlier work
From the text: This is surprising, as hLF usually exerts antimicrobial functions ([22][–][24]), as well as preventing virus attachment to target cells and/or inhibiting virus replication ([25][–][27]). hLF is produced largely by neutrophils, but also by primary epithelial cells, and it is naturally present in a vast majority of body fluids in concentrations of up to several mg/ml, where it protects epithelia from pathogens ([28][–][31]). […] In this study, we investigated the molecular mechanisms behind hLF-dependent infection. As a first step, we investigated the structural features whereby hLF mediates HAdV-C5 infection of human respiratory A549 cells. In total, we used three different types of lactoferrin, namely, hLF purified from human tear fluid (present in several mg/ml), a recombinant form of hLF produced in Aspergillus with a human amino acid backbone but with a high-mannose glycosylation pattern ... || Utilization of hLF/hLfcin by species C HAdVs could also account for the frequent and persistent infections of species C HAdVs in tonsil T lymphocytes in young children ([56]). […] Taken together, our results highlight the ingenuity of HAdVs and explain how they may ensure efficient infection in a very hos ...

[4] = LF 1 mg/ml preincubated with HAdV-C5_GFP
[5] = association rate constant, analyte hLF, SPR, HBS-EP+ pH 7.4, 25°C, average from three independent measurements
[6] = dissociation rate constant, analyte hLF, SPR, HBS-EP+ pH 7.4, 25°C, average from three independent measurements

B1: bovine lactoferrin (protein, UniProt P24627 20-708, looked up)
Lactotransferrin: APRKNVRWCTISQPEWFKCRRWQWRMKKLGAPSITCVRRAFALECIRAIAEKKADAVTLDGGMVFEAGRDPYKLRPVAAEIYGTKESPQTHYYAVAVVKKGSNFQLDQLQGRKSCHTGLGRSAGWIIPMGILRPYLSWTESLEPLQGAVAKFFSASCVPCIDRQAYPNLCQLCKGEGENQCACSSREPYFGYSGAFKCLQDGAGDVAFVKETTVFENLPEKADRDQYELLCLNNSRAPVDAFKECHLAQVPSHAVVARSVDGKEDLIWKLLSKAQEKFGKNKSRSFQLFGSPPGQRDLLFKDSALGFLRIPSKVDSALYLGSRYLTTLKNLRETAEEVKARYTRVVWCAVGPEEQKKCQQWSQQSGQNVTCATASTTDDCIVLVLKGEADALNLDGGYIYTAGKCGLVPVLAENRKSSKHSSLDCVLRPTEGYLAVAVVKKANEGLTWNSLKDKKSCHTAVDRTAGWNIPMGLIVNQTGSCAFDEFFSQSCAPGADPKSRLCALCAGDDQGLDKCVPNSKEKYYGYTGAFRCLAEDVGDVAFVKNDTVWENTNGESTADWAKNLNREDFRLLCLDGTRKPVTEAQSCHLAVAPNHAVVSRSDRAAHVKQVLLHQQALFGKNGKNCPDKFCLFKSETKNLLFNDNTECLAKLGGRPTYEEYLGTEYVTAIANLKKCSTSPLLEACAFLTR
notes: bovine lactoferrin from cow milk (Sigma)
For B1, the “effect of LF on HAdV-C5_GFP transduction of A549 cells (in words)” value [1, 4] was “Neither bLF nor rhLF affected HAdV-C5_GFP transduction”, the “effect on HAdV-C5 transduction of A549 cells (in words)” value ([1]; at this concentration (2 μM), Fig. 1D) was “no or little effect” and the “effect on HAdV-C5 binding to A549 cells (in words)” value [2] was “no or little effect”.

B2: human lactoferrin (protein, UniProt P02788 20-710, looked up)
Lactotransferrin: GRRRSVQWCAVSQPEATKCFQWQRNMRKVRGPPVSCIKRDSPIQCIQAIAENRADAVTLDGGFIYEAGLAPYKLRPVAAEVYGTERQPRTHYYAVAVVKKGGSFQLNELQGLKSCHTGLRRTAGWNVPIGTLRPFLNWTGPPEPIEAAVARFFSASCVPGADKGQFPNLCRLCAGTGENKCAFSSQEPYFSYSGAFKCLRDGAGDVAFIRESTVFEDLSDEAERDEYELLCPDNTRKPVDKFKDCHLARVPSHAVVARSVNGKEDAIWNLLRQAQEKFGKDKSPKFQLFGSPSGQKDLLFKDSAIGFSRVPPRIDSGLYLGSGYFTAIQNLRKSEEEVAARRARVVWCAVGEQELRKCNQWSGLSEGSVTCSSASTTEDCIALVLKGEADAMSLDGGYVYTAGKCGLVPVLAENYKSQQSSDPDPNCVDRPVEGYLAVAVVRRSDTSLTWNSVKGKKSCHTAVDRTAGWNIPMGLLFNQTGSCKFDEYFSQSCAPGSDPRSNLCALCIGDEQGENKCVPNSNERYYGYTGAFRCLAENAGDVAFVKDVTVLQNTDGNNNEAWAKDLKLADFALLCLDGKRKPVTEARSCHLAMAPNHAVVSRMDKVERLKQVLLHQQAKFGRNGSDCPDKFCLFQSETKNLLFNDNTECLARLHGKTTYEKYLGPQYVAGITNLKKCSTSPLLEACEFLRK
notes: Human LF purified from human tear fluid by size exclusion chromatography
In the case of B2, the Kd (HAdV-C5 hexon; SPR Biacore T200, HAdV-C5 hexon amine-coupled on CM5 chip (900 to 1,100 RU), analyte hLF, 2-fold series 8 nM to 2 μM, HBS-EP+ pH 7.4, 25°C, average from three independent measurements) is reported as 29 ± 3.6 nM, the “affinity ratio, HAdV-C5 hexon stronger than HAdV-B35 hexon” value (HAdV-C5 hexon; SPR, 25°C, pH 7.4, HAdV-C5 versus HAdV-B35 hexon) is reported as “about 5 fold” and the ka (HAdV-C5 hexon; [5]) is reported as 53000 ± 2600 M⁻¹ s⁻¹. The kd (HAdV-C5 hexon; [6]) was 0.00154 ± 0.00024 s⁻¹, the Kd (HAdV-B35 hexon; SPR Biacore T200, HAdV-B35 hexon on CM5 chip, analyte hLF, 2-fold series 8 nM to 2 μM, HBS-EP+ pH 7.4, 25°C, average from three independent measurements) was 151 ± 14 nM and the “affinity ratio, HAdV-B35 hexon stronger than HAdV-A31 hexon” value (HAdV-B35 hexon; SPR, 25°C, pH 7.4, HAdV-B35 versus HAdV-A31 hexon) was 5 fold. For the same molecule, the ka (HAdV-B35 hexon; [5]) was 25000 ± 2500 M⁻¹ s⁻¹, the kd (HAdV-B35 hexon; [6]) was 0.00354 ± 0.00014 s⁻¹ and the Kd (HAdV-A31 hexon; SPR Biacore T200, HAdV-A31 hexon on CM5 chip, 2-fold series 8 nM to 2 μM) was 827 ± 55 nM. For the same molecule, the ka (HAdV-A31 hexon; association rate constant, SPR) was 12000 ± 1100 M⁻¹ s⁻¹, the kd (HAdV-A31 hexon; dissociation rate constant, SPR) was 0.01011 ± 0.00024 s⁻¹ and the “increase of HAdV-C5_GFP transduction of A549 cells by LF” value ([1]; LF 1 mg/ml preincubated with HAdV-C5_GFP, GFP imaging after 44 h, mean from 3 to 5 independent experiments (Fig. 1A)) was 4 fold. For the same molecule, the “prevention of transduction at high concentration” value ([1]; high, nonphysiological concentrations, data not shown, cell line not stated, also ref [15]) was “able to prevent transduction”, the “effect on HAdV-C5 infection of CAR-negative T cells” value ([3]; CAR-negative T cells) was “facilitates HAdV-C5 infection” and the “effect on species C HAdV infection” value [3] was “efficiently increases species C HAdV infection; also recorded: all species C HAdVs infect epithelial and T cells more efficiently”.

B3: rhLF: recombinant hLF produced in Aspergillus awamori, human amino acid backbone, high-mannose glycosylation pattern (protein, UniProt P02788 20-710, looked up)
Lactotransferrin: B2 Lactotransferrin
modifications: recombinant, expressed in Aspergillus awamori
With B3 the “effect of LF on HAdV-C5_GFP transduction of A549 cells (in words)” value [1, 4] was “Neither bLF nor rhLF affected HAdV-C5_GFP transduction”.
